Starred links: 1 amine or outer side, 2 acyl side, 3 side chain; linkers in the order of their positions; H or OH if unused. Positions of bridges follow the written chain, without caps; N, C: chain ends. Non-standard residues stand in square brackets, D forms with d. No end group written: not given here. X1 = 3‑(7-(3-acetamidophenyl)-1H-indol-3-yl)‑2‑aminopropanoic acid, CC(=O)Nc1cccc(-c2cccc3c(CC(N[*:1])C(=O)[*:2])c[nH]c23)c1; X3 = 4‑(2-(4-(2-amino-2-carboxyethyl)phenoxy)ethyl)‑4‑methylmorpholin‑4‑ium, C[N+]1(CCOc2ccc(CC(N[*:1])C(=O)[*:2])cc2)CCOCC1; Trp(7-Me) = Cc1cccc2c(C[C@H](N)C(=O)O)c[nH]c12; d(hLys(Me3)) = C[N+](C)(C)CCCCC[C@@H](N)C(=O)O; 3Pal = N[C@@H](Cc1cccnc1)C(=O)O; Lipidated = not defined here; Pen = CC(C)(S)[C@H](N)C(=O)O; lipid = not defined here; Thp = NC1(C(=O)O)CCOCC1; Sar = CNCC(=O)O
T1: interleukin-23 receptor (IL-23R), Q5VWK5
T1 chain: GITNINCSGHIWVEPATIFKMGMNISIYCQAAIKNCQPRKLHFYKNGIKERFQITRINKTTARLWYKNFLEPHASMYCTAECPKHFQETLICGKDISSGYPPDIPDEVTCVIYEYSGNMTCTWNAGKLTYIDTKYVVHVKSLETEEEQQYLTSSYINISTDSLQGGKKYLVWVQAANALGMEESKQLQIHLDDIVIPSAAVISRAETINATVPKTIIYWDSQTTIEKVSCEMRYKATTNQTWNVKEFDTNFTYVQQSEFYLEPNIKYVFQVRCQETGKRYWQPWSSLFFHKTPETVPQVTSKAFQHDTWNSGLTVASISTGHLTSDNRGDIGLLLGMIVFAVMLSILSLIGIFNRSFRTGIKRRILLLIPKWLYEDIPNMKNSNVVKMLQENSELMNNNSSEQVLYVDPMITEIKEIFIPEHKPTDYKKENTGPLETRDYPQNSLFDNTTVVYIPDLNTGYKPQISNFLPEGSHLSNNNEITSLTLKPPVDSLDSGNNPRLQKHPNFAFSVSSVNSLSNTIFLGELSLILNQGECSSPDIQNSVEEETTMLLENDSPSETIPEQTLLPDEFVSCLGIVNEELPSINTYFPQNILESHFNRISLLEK

B1: SEQ ID NO: 148 (peptide)
peptide: R[Pen]ET[Trp(7-Me)]K(Ac)[Pen][2‑amino‑3‑(4-(2-aminoethoxy)phenyl)propanoic acid][2‑amino‑3‑(6-hydroxynaphthalen-2-yl)propanoic acid][Thp]EN[3Pal][Sar]K
modifications: disulfide 2-7 (inferred); ends not checked; also: Lys15: lipidated lysine, lipid not given here
B2: SEQ ID NO: 150 (peptide)
peptide: R[Pen]KT[X1]K(Ac)[Pen][2‑amino‑3‑(4-(2-aminoethoxy)phenyl)propanoic acid][2‑amino‑3‑(6-hydroxynaphthalen-2-yl)propanoic acid][Thp]EN[3Pal][Sar]
modifications: disulfide 2-7 (inferred); ends not checked; also: Lys3: lipidated lysine, lipid not given here
B3: SEQ ID NO: 151 (peptide)
peptide: R[Pen]NT[X1]K(Ac)[Pen][2‑amino‑3‑(4-(2-aminoethoxy)phenyl)propanoic acid][2‑amino‑3‑(6-hydroxynaphthalen-2-yl)propanoic acid][Thp]EN[3Pal][Sar]
modifications: disulfide 2-7 (inferred); ends not checked
B4: SEQ ID NO: 153 (peptide)
peptide: [Pen]NT[X1]K(Ac)[Pen][2‑amino‑3‑(4-(2-aminoethoxy)phenyl)propanoic acid][2‑amino‑3‑(6-hydroxynaphthalen-2-yl)propanoic acid][Thp]KN[3Pal][Sar]
modifications: disulfide 1-6 (inferred); ends not checked; also: K10: lipidated lysine, lipid not given here
B5: SEQ ID NO: 156 (peptide)
peptide: R[Pen]NT[X1]K(Ac)[Pen][2‑amino‑3‑(4-(2-aminoethoxy)phenyl)propanoic acid][2‑amino‑3‑(6-hydroxynaphthalen-2-yl)propanoic acid][Thp]EN[3Pal][Sar]K
modifications: disulfide 2-7 (inferred); ends not checked; also: K15: lipidated lysine, lipid not given here
B6: SEQ ID NO: 161 (peptide)
peptide: R[Pen]NT[X1]K(Ac)[Pen][X3][2‑amino‑3‑(6-hydroxynaphthalen-2-yl)propanoic acid][Thp]EN[3Pal][Sar]
modifications: disulfide 2-7 (inferred); ends not checked
B7: SEQ ID NO: 164 (peptide)
peptide: K(lipid)[Pen]NT[Trp(7-Me)]K(Ac)[Pen][2‑amino‑3‑(4-(2-aminoethoxy)phenyl)propanoic acid][2‑amino‑3‑(6-hydroxynaphthalen-2-yl)propanoic acid][Thp]K(Ac)N[3Pal][Sar]
modifications: disulfide 2-7 (inferred); ends not checked; also: K1: lipidated lysine, lipid not given here
B8: SEQ ID NO: 165 (peptide)
peptide: [Pen]NT[Trp(7-Me)]K(Ac)[Pen][2‑amino‑3‑(4-(2-aminoethoxy)phenyl)propanoic acid][2‑amino‑3‑(6-hydroxynaphthalen-2-yl)propanoic acid][Thp]K(Ac)N[3Pal][Sar]K(lipid)
modifications: disulfide 1-6 (inferred); ends not checked; also: K14: lipidated lysine, lipid not given here
B9: SEQ ID NO: 166 (peptide)
peptide: [(R)‑3‑carboxy‑2‑(4-(((R)-5-carboxy-5-hydrazineylpentyl)amino)-4-oxobutanamido)‑N,N,N‑trimethylpropan‑1‑aminium][Pen]NT[Trp(7-Me)]K(Ac)[Pen][2‑amino‑3‑(4-(2-aminoethoxy)phenyl)propanoic acid][2‑amino‑3‑(6-hydroxynaphthalen-2-yl)propanoic acid][Thp]EN[3Pal][Sar]K(lipid)
modifications: disulfide 2-7 (inferred); ends not checked; also: K15: lipidated lysine, lipid not given here
B10: SEQ ID NO: 169 (peptide)
peptide: [Pen]ET[Trp(7-Me)]K(Ac)[Pen][2‑amino‑3‑(4-(2-aminoethoxy)phenyl)propanoic acid][2‑amino‑3‑(6-hydroxynaphthalen-2-yl)propanoic acid][Thp]K(Ac)N[3Pal][Sar]K(lipid)
modifications: disulfide 1-6 (inferred); ends not checked; also: K14 lipidated, lipid not given here
B11: SEQ ID NO: 170 (peptide)
peptide: [Pen]ET[Trp(7-Me)]K(Ac)[Pen][2‑amino‑3‑(4-(2-aminoethoxy)phenyl)propanoic acid][2‑amino‑3‑(6-hydroxynaphthalen-2-yl)propanoic acid][Thp]K(Ac)N[3Pal][Sar]K(lipid)
modifications: disulfide 1-6 (inferred); ends not checked; also: K14 lipidated, lipid not given here
B12: SEQ ID NO: 181 (peptide)
peptide: [d(hLys(Me3))][Pen]NT[Trp(7-Me)]K(Ac)[Pen][2‑amino‑3‑(4-(2-aminoethoxy)phenyl)propanoic acid][2‑amino‑3‑(6-hydroxynaphthalen-2-yl)propanoic acid][Thp]K(Ac)N[3Pal][Sar]K(lipid)
modifications: disulfide 2-7 (inferred); ends not checked; also: K15 lipidated lysine, lipid not given here
B13: SEQ ID NO: 182 (peptide)
peptide: [Pen]NT[Trp(7-Me)]K(Ac)[Pen][2‑amino‑3‑(4-(2-aminoethoxy)phenyl)propanoic acid][2‑amino‑3‑(6-hydroxynaphthalen-2-yl)propanoic acid][Thp]K(Ac)N[3Pal][Sar]K(lipid)
modifications: disulfide 1-6 (inferred); ends not checked; also: K14 lipidated lysine, lipid not given here
B14: SEQ ID NO: 184 (peptide)
peptide: [d(hLys(Me3))][Pen]NT[Trp(7-Me)]K(Ac)[Pen][2‑amino‑3‑(4-(2-aminoethoxy)phenyl)propanoic acid][2‑amino‑3‑(6-hydroxynaphthalen-2-yl)propanoic acid][Thp]K(Lipidated)N[3Pal][Sar]
modifications: disulfide 2-7 (inferred); ends not checked; also: K11 lipidated lysine, lipid not given here
B15: SEQ ID NO: 185 (peptide)
peptide: [Pen]NT[Trp(7-Me)]K(Ac)[Pen][2‑amino‑3‑(4-(2-aminoethoxy)phenyl)propanoic acid][2‑amino‑3‑(6-hydroxynaphthalen-2-yl)propanoic acid][Thp]K(Lipidated)N[3Pal][Sar]
modifications: disulfide 1-6 (inferred); ends not checked; also: K10 lipidated lysine, lipid not given here

Molecular target: T1, interleukin-23 receptor (IL-23R), Q5VWK5
Assay: cell-based or functional assay

Row | Binder | PBMC pSTAT3 IC50
1 | B1 | < 0.1 nM
2 | B2 | < 1 nM
3 | B3 | < 1 nM
4 | B4 | < 0.1 nM
5 | B5 | < 1 nM
6 | B6 | < 10 pM
7 | B7 | < 1 nM
8 | B8 | > 1 nM
9 | B9 | < 1 nM
10 | B10 | < 1 nM
11 | B11 | < 1 nM
12 | B12 | < 1 nM
13 | B13 | < 1 nM
14 | B14 | < 1 nM
15 | B15 | < 1 nM

From patent US20240279281A1, “Peptide Inhibitors of Interleukin-23 Receptor” (Janssen Pharmaceutica NV, priority 2023, published 2024)
